Laboratory results as given in US20180051081A1 (published 2018).

T1: mouse CD47 (mouse, UniProt Q61735 19-303)
T1 construct: whole, on cells; also called CD47 on mouse RBCs; CD47 on 4T1 cells
T1 sequence (looked up): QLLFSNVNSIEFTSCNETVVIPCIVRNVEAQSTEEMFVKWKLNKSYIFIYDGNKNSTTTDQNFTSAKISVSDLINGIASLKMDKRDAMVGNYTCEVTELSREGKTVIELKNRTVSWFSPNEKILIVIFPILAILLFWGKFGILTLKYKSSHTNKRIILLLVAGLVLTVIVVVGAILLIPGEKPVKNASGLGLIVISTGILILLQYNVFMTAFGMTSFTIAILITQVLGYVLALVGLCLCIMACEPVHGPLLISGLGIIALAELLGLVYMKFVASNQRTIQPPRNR

T2: dog CD47 (dog, UniProt A0A8I3PM61 19-310)
T2 construct: also called CD47 on dog RBCs
T2 sequence: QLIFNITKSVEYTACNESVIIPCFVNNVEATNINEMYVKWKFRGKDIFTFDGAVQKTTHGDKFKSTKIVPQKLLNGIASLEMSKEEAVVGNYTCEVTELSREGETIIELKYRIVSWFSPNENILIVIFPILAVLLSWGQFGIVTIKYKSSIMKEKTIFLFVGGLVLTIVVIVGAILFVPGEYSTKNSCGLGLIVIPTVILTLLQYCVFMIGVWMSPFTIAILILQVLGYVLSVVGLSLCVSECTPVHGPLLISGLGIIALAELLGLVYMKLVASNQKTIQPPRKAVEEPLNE

T3: pig CD47 (pig, UniProt Q9GKE8 19-303)
T3 construct: whole, on cells; also called CD47 on porcine RBCs
T3 sequence (looked up): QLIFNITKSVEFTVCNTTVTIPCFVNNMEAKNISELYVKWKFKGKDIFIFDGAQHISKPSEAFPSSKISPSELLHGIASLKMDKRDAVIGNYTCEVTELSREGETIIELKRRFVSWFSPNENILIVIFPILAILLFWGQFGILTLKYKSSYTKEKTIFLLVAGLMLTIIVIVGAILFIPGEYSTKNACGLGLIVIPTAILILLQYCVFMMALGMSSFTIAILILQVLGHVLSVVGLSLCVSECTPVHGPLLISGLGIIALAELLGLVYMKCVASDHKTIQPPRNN

T4: rat CD47 (rat, UniProt P97829 19-303)
T4 construct: whole, on cells; also called CD47 on rat RBCs
T4 sequence (looked up): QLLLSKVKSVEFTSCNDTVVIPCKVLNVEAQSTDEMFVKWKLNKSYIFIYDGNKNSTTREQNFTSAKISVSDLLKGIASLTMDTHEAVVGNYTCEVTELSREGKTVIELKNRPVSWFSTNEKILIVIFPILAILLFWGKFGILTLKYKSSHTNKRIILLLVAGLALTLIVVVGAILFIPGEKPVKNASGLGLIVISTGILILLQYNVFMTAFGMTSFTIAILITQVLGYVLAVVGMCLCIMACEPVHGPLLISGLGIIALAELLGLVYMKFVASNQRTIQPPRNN


Experiments:
[1] = biological target: T1, mouse CD47; assay: FACS, mouse RBCs, supernatant 10 ng/ml
Procedure: (§1) RBCs are incubated for 60 minutes on ice with tissue culture supernatants containing the secreted humanized antibodies at a concentration of 10 ng/ml in a solution of phosphate buffered saline, pH 7.2, 2.5 mM EDTA (PBS+E), or with various concentrations of purified antibodies. Cells are then washed with cold PBS+E, and incubated for an additional hour on ice with FITC labeled donkey anti-human antibody (Jackson Immuno Research Labs, West Grove, Pa.; Catalogue #709-096-149) in PBS+E. Cells are then washed with PBS+E, and antibody binding is analyzed using a BD FACSAria Cell Sorter (Becton Dickinson) or a C6 Accuri Flow Cytometer (Becton Dickinson). Antibody binding is quantitated by comparison of mean fluorescence values relative to that of chimeric antibody >VxP037-01LC (SEQ ID NO:7))/>VxP037-01HC (SEQ ID NO:57). The mean fluorescence value for each antibody is divided by the mean fluorescence value for the chimeric antibody.

[2] = biological target: T2, dog CD47; assay: FACS, dog RBCs, supernatant 10 ng/ml
Procedure: as §1

[3] = biological target: T3, pig CD47; assay: FACS, pig RBCs, supernatant 10 ng/ml
Procedure: as §1

[4] = biological target: T5, human CD47 (human, UniProt Q08722 19-323); assay: FACS, human RBCs, supernatant 10 ng/ml
T5 construct: whole, on cells; also called CD47 on human RBCs; CD47 on OV10 cells
T5 sequence (Q08722 19-323): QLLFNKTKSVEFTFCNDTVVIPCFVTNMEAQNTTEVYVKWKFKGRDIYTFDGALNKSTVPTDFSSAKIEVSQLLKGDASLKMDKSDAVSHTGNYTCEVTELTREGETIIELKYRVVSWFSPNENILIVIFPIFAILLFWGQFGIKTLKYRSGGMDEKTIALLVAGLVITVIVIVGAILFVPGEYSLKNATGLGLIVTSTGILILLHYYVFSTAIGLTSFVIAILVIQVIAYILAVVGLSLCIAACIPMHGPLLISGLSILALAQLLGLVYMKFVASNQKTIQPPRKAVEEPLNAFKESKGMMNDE
Procedure: as §1

[5] = biological target: T4, rat CD47; assay: FACS, rat RBCs, supernatant 10 ng/ml
Procedure: as §1

mean fluorescence relative to chimera [1] | mean fluorescence relative to chimera [2] | mean fluorescence relative to chimera [3] | mean fluorescence relative to chimera [4] | mean fluorescence relative to chimera [5] | Binder
1.2 | 1 | 1.4 | 1.1 | 2.8 | Clone 22 (pVxK7b-037-hum22-LC / pVxK7b-037-hum22-HC) (antibody, human IgG1, kappa, V domains shown) VH: QVQLQESGPGLVKPSQTLSLTCTVSGYTFTNYYVFWVRQARGQRLEWIGDINPVNGDTNFNEKFKNRLTISKDTSKNQVVLTMTNMDPVDTATYYCARGGYTMDYWGQGTLVTVSS VL: EIVLTQSPATLSVSPGERATLSCRSSQSLVHSNGNTYLHWYQQKPGQAPRLLIYKVSYRFSGVPSRFSGSGSGTDFTFTISSLEAEDAATYYCSQNTHVPRTFGQGTKVEIKR
1.2 | 1 | 1.2 | 1 | 2.6 | Clone 2 (pVxK7b-037-hum02-LC / pVxK7b-037-hum02-HC) (antibody, human IgG1, kappa, V domains shown) VH: QVQLQESGPGLVKPSQTLSLTCTVSGYTFTNYYVFWVRQARGQRLEWIGDINPVNGDTNFNEKFKNRVTISADKSISTAYLQWSSLKASDTAMYYCARGGYTMDYWGQGTLVTVSS VL: DVVMTQSPLSLPVTLGQPASISCRSSQSLVHSNGNTYLHWYQQKPGQAPRLLIYKVSYRFSGVPSRFSGSGSGTEFTLTISSLQPDDFATYYCSQNTHVPRTFGQGTKVEIKR
1 | 1.1 | 1.2 | 1 | 2.2 | Clone 5 (pVxK7b-037-hum05-LC / pVxK7b-037-hum05-HC) (antibody, human IgG1, kappa) light: DIVMTQTPLSLPVTPGEPASISCRSSQSLVHSNGNTYLHWYLQKPGQSPQLLIYKVSYRFSGVPDRFSGSGSGTDFTLKISRVEAEDVGVYYCSQNTHVPRTFGQGTKVEIKRTVAAPSVFIFPPSDEQLKSGTASVVCLLNNFYPREAKVQWKVDNALQSGNSQESVTEQDSKDSTYSLSSTLTLSKADYEKHKVYACEVTHQGLSSPVTKSFNRGEC heavy: not shown
1.2 | 1.1 | 1.5 | 1.1 | 2.9 | Clone 10 (pVxK7b-037-hum10-LC / pVxK7b-037-hum10-HC) (antibody, human IgG1, kappa, V domains shown) VH: QVQLQESGPGLVKPSQTLSLTCTVSGYTFTNYYVFWVRQARGQRLEWIGDINPVNGDTNFNEKFKNRLTISKDTSKNQVVLTMTNMDPVDTATYYCARGGYTMDYWGQGTLVTVSS VL: DIVMTQTPLSLPVTPGEPASISCRSSQSLVHSNGNTYLHWYLQKPGQSPQLLIYKVSYRFSGVPDRFSGSGSGTDFTLKISRVEAEDVGVYYCSQNTHVPRTFGQGTKVEIKR

More lines, now with the values behind:

Binder | mean fluorescence relative to chimera [1] | mean fluorescence relative to chimera [2] | mean fluorescence relative to chimera [3] | mean fluorescence relative to chimera [4] | mean fluorescence relative to chimera [5]
Clone 21 (pVxK7b-037-hum21-LC / pVxK7b-037-hum21-HC) (antibody, human IgG1, kappa, V domains shown) VH: QVQLQESGPGLVKPSQTLSLTCTVSGYTFTNYYVFWVRQARGQRLEWIGDINPVNGDTNFNEKFKNRLTISKDTSKNQVVLTMTNMDPVDTATYYCARGGYTMDYWGQGTLVTVSS VL: AIQLTQSPSSLSASVGDRVTITCRSSQSLVHSNGNTYLHWYQQKPGQAPRLLIYKVSYRFSGVPDRFSGSGSGTDFTLKISRVEAEDVGVYYCSQNTHVPRTFGQGTKVEIKR | 1.2 | 1.1 | 1.4 | 1.2 | 2.8
Clone 24 (pVxK7b-037-hum24-LC / pVxK7b-037-hum24-HC) (antibody, human IgG1, kappa, V domains shown, also called Cl 24) VH: QVQLQESGPGLVKPGATVKISCKVSGYTFTNYYVFWVRQARGQRLEWIGDINPVNGDTNFNEKFKNRVTITADKSTSTAYMELSSLRSEDTAVYYCARGGYTMDYWGQGTLVTVSS VL: AIQLTQSPSSLSASVGDRVTITCRSSQSLVHSNGNTYLHWYQQKPGQAPRLLIYKVSYRFSGVPSRFSGSGSGTEFTLTISSLQPDDFATYYCSQNTHVPRTFGQGTKVEIKR | 0.7 | 1 | 1.1 | 0.8 | 1.2
Clone 4 (pVxK7b-037-hum04-LC / pVxK7b-037-hum04-HC) (antibody, human IgG1, kappa, V domains shown) VH: QVQLQESGPGLVKPSQTLSLTCTVSGYTFTNYYVFWVRQAPGKGLEWVSDINPVNGDTNFNEKFKNRVTISVDTSKNQFSLKLSSVTAADTAVYYCARGGYTMDYWGQGTLVTVSS VL: DIQMTQSPSSLSASVGDRVTITCRSSQSLVHSNGNTYLHWYLQKPGQSPQLLIYKVSYRFSGIPARFSGSGSGTEFTLTISSLQSEDFAVYYCSQNTHVPRTFGQGTKVEIKR | 0.6 | 0.6 | 0.6 | 0.6 | 1
Clone 7 (pVxK7b-037-hum07-LC / pVxK7b-037-hum07-HC) (antibody, human IgG1, kappa, V domains shown) VH: QVQLQESGPGLVKPGATVKISCKVSGYTFTNYYVFWVRQARGQRLEWIGDINPVNGDTNFNEKFKNRVTITADKSTSTAYMELSSLRSEDTAVYYCARGGYTMDYWGQGTLVTVSS VL: DIVMTQTPLSLPVTPGEPASISCRSSQSLVHSNGNTYLHWYLQKPGQSPQLLIYKVSYRFSGVPDRFSGSGSGTDFTLKISRVEAEDVGVYYCSQNTHVPRTFGQGTKVEIKR | 0.4 | 0.8 | 0.9 | 0.5 | 0.8
Clone 12 (pVxK7b-037-hum12-LC / pVxK7b-037-hum12-HC) (antibody, human IgG1, kappa, V domains shown) VH: QVQLQESGPGLVKPGATVKISCKVSGYTFTNYYVFWVRQARGQRLEWIGDINPVNGDTNFNEKFKNRVTITADKSTSTAYMELSSLRSEDTAVYYCARGGYTMDYWGQGTLVTVSS VL: DIVMTQTPLSLPVTPGEPASISCRSSQSLVHSNGNTYLHWYQQKPGKAPKLLIYKVSYRFSGVPDRFSGSGSGTDFTLKISRVEAEDVGVYYCSQNTHVPRTFGQGTKVEIKR | 0.6 | 0.9 | 1.4 | 0.8 | 1.3
Clone 23 (pVxK7b-037-hum23-LC / pVxK7b-037-hum23-HC) (antibody, human IgG1, kappa) light: DIVMTQTPLSLPVTPGEPASISCRSSQSLVHSNGNTYLHWYQQKPGKAPKLLIYKVSYRFSGVPDRFSGSGSGTDFTLKISRVEAEDVGVYYCSQNTHVPRTFGQGTKVEIKRTVAAPSVFIFPPSDEQLKSGTASVVCLLNNFYPREAKVQWKVDNALQSGNSQESVTEQDSKDSTYSLSSTLTLSKADYEKHKVYACEVTHQGLSSPVTKSFNRGEC heavy: not shown | 1.4 | 1.1 | 1.7 | 1.2 | 3.3
Clone 9 (pVxK7b-037-hum09-LC / pVxK7b-037-hum09-HC) (antibody, human IgG1, kappa, also called Cl 9) light: DVVMTQSPLSLPVTLGQPASISCRSSQSLVHSNGNTYLHWYQQKPGKAPKLLIYKVSYRFSGVPDRFSGSGSGTDFTLKISRVEAEDVGVYYCSQNTHVPRTFGQGTKVEIKRTVAAPSVFIFPPSDEQLKSGTASVVCLLNNFYPREAKVQWKVDNALQSGNSQESVTEQDSKDSTYSLSSTLTLSKADYEKHKVYACEVTHQGLSSPVTKSFNRGEC heavy: not shown | 1.4 | 1 | 1.6 | 1.2 | 3.7
